# Assay results: the DeepSol protein solubility set
# Assay: soluble on expression in E. coli; label from the status in PepcDB or PDB records
row,Sequence,soluble on expression in E. coli
1,MSTHFDVIVVGAGSMGMAAGYQLAKQGVKTLLVDAFDPPHTNGSHHGDTKIIRHAYGEGREYVPLALRSQELWYELEKETHHKIFTKTGVLVFGPKGESAFVAETMEAAKEHSLTVDLLEGDEINKRWPGITVPENYNAIFEPNSGVLFSENCIRAYRELAEARGAKVLTHTRVEDFDISPDSVKIETANGSYTADKLIVSMGAWNSKLLSKLNLDIPLQPYRQVVGFFESDESKYSNDIDFPGFMVEVPNGIYYGFPSFGGCGLKLGYHTFGQKIDPDTINREFGVYPEDESNLRAFLEEYMPGANGELKRGAVCMYTKTLDEHFIIDLHPEHSNVVIAAGFSGHGFKFSSGVGEVLSQLALTGKTEHDISIFSINRPALKESLQKTTI,soluble
2,AISGAKKYFYMQTPYFLPTEQILGAMQTAALAGVDIRLMLPEHADNRVTHLGSCSYLADVLRAGVKVYFYKKGFLHSKLMVSDDMLSTVGSTNLDFRSFEHNFEVNAFMYDMETALQMREIFLQDQRESTQIFLKSWEKRSSRQKAMESVVRLLAPLL,not soluble
3,GGRGGFGGRGGFGGRGGFG,soluble
4,AIAENSSKEDYKIQSFDLETQKLLKTALKDPGSVDLEKVSSVIVDQSLKDQVFSREAGRICYTIVQAEAKQTNGSVFRRNLLNRLQQEFKAREETRKRSTQEWVCLVSFICNIFDYLKVNNMPMVALVHPVYDCLFRLAQSDALKNEEEVDCLVLQLHRIGDQLEKMNVQLMDELFNLLRDGFLLQEDLSSMGRLLLLEILEFRAGGWKLSDTAQKYYYSEVTD,soluble
5,MSRTMAEVNRLLKKTAGLINKDTESPFQGEFRVGVDLGTADIQTIVLDADGNPLAGFMDWANVVRDGVVVDFFGASQIVREQVRRASAKLGIQIEQVTTSFPPGTDSRISTNVIEAAGLEVAGVIDEPSSVAQLLQLDHAAVVDIGGGTTGTAIIEEGRVVRSMDDATGGRHITLTLAGHFGLPYEEAEEMKRTSKDLALCRLAAPVIAKMADIVHGHIAGHKVPAIYLTGGSCALPGFLEVFAAEFPGIEIVMPSHPLYLTPLAIATYSDVLQTREQRVGLEHHHHHH,not soluble
6,AIATLEKKEYGAPGFWPGSMIGRVHAFETPAPLTRAQLDRLRDEFFETRTEGHLEIWTAIRAASHAQEAGDDELAYAIITAVGILPAEVGPAGEGLGERIPFAEQPLDRLLGMICGCCFPAFTRYRTLERVYDQRGFLYETPKECIATPSNVLPDESTEASAR,soluble
7,MSLTRHQRLFVWTVTHGFREYGVAQQKTHHNTMSPEAAIEWVVRQEPGIFIFKDLHPFISSPAVTRWLREAIASFKGTEKAIILMSPYQETPIELEKDVVVLDFALPDLVTLDGVLGQQLGKSRHALGEDSREKLLKAALGLTKDEAEKVYRKAYVKAGQLTEGEVEIVLSEKKQMIRRNEGHHHHHH,not soluble
8,MILVVDNYDSFTYNLVDIVAQHTDVIVQYPDDDNVLNQSVDAVIISPGPGHPLDDQQLMKIISTYQHKPILGICLGAQALTCYYGGEVIKGDKVMHGKVDTLKVISHHQHLLYQDIPEQFSIMRYHSLISNPDNFPEELKITGRTKDCIQSFEHKERPHYGIQYHPESFATDYGVKIITNFINLVKEG,not soluble
9,INPAAHGAMDELLGELRLHTVCREARCPNITECFRERQATFLILGAECTRLCSFCNVTKGEPLPPDPDEPARVAQAVVRLSLAHVVITSPTRDDLPDGGAGHYVATVATIGRVAPATVVELLIPDFLGSRAALADVVAAAPRIIGHNVETVPRLYAIRAGADYGRSLAVLRTLRELAPGCATKSGLMLGLGETEEEVLAVMADLRRVDCTYLSLGQYLAPSRFHHPVREFVLPETFDRLKELAEKMGFRHVESGPY,not soluble
10,MGSDKIHHHHHHVKEIRERGGTVKQQLITTHDGGRLALYSYGTVDAPGERRVVVIGGAFLTALIYRPFSEALSKGLGDGWAVDVYDRRGRGESTPQPADYSMATEIADVRTIMDATGARNLFGHSLGGSVALNAVQEFVGTAHQPDRLAVYDAAVNIDGSVDTSWLDSFERSVNEGNVPHALAKLKKGMQPGTAMARIPEPVLAGLMALVSRTKVNRLFKEVMPSGVGELKAVFDEADHVRDFSVLPPNTRFMVGSKSPRYYKVTAELLHRAVPGSVLQVSPKCVHASIPAAVKELVADISAYYKG,not soluble
11,MAHHHHHHMPLYRLSVSAETEGVVCIRPMRPRNWGLKVTCDACREFSPNFVYVDESEECDSGGGGTRNAAFKCASCKTLITAHIDPESYGTYRPEEDNGKGDGNSILIIEVRGATPTELEIDDKWVVEAEGATFEAADLSTDWMEYDEKSGNAVSVSQFTVEFSRLKK,soluble
12,MKIALIGASGYVGSALLKEALSRGHHVTALVSRPERIAAQANLAAAKVDVQDSAQLAEQLKGFDAVLSAFSGHAQAEQFDYFVKGIRSIIAAAKAAQAPRLLVVGGAGSLEVAPGVQLVDTPEFPEQWKASALGAREALNLLRAETELNWTLLSPSAMLQPGQRTGQFRLGKDQLLVDAEGNSHISVEDYAVAMIDELEKGEHQRSRFTVGYLEHHHHHH,soluble
13,MKTLLEVKDLQVSFDTHAGEVQAVRGVTFDLKKGETLAIVGESGSGKSVTSKALMGLIPNPPGRIKNGEIVFEGRDLTKLTEKEMQQVRGKDIAMIFQDPMTSLNPTMTIGNQIMEGLIKHQGMSKADARKVALELIDLVGIPNPEARLKQYPHQFSGGMRQRVVIAMALACNPKLLIADEPTTALDVTIQAQILELMKDIQQKTEAAIIFITHDLGVVANVADRVAVMYAGKVVEIGTVDEIFYNPKHPYTWGLIASMPSLDGSEEELYAIPGTPPDLLKPPKGDAFAPRNPQALKIDFEMDPPLFKVSDTHYAATWLLHEQAPEVRPPAVVEKRILQMKAGEQHD,not soluble
14,MDVVILDTGCANLSSVTYAVQRLGYTPVISRDPAVVLRADKLFMPGVGTAHAAMEQLRQRELIELIKSCTQPVLGICLGMQLLATSSEESGGITTLGMIDAPVKKMTDFGLPLPHMGWNQITAQAGNHLFRGIPDGTYFYFVHGYAMPICPNTIAQTNYGEPFTAAVEKDNFFGVQFHPERSGAAGAQLMKNFLEM,not soluble
15,MRAWPIHLHVGSIERSSALLVGGCNVVYGLSSHEKSNVGFGEVGSQSWIAQNRVLLFDPDGIDMPVDDRDMHVLQTRQQAPIDTRIAFQGLGVNSMQQNAGVFVGDAQITGWDQHQKSNKASGDIGGDHNVEIAGLHVNYDADGMDGVFLDSDHKAGTFVRQG,not soluble
16,MAAVSEFRLLQLPERAQRISLSHMSYNSIFSLSLCSTKKNKRPQGVPIRTLTYEGIEITSDRINRKHPVSDTFLSKAGFLDFYNCTYKSSQFIHKFLIHNTTTVFTRGVPRYNLNDLLVSNGQKIYVQVGRGIIFLEKDVNKFLKHWIRGSNRELKSLAFRAPMNMEIEHAIETILKGICYKDAREEDAASIKLVHICNGNTFKHPIIKISGFRIKRFDGTNATVVIRLLNANSVCFTSYVLHFLHNTSIMAAVSPFRLLQLPQRAQRISLSHMSSVSVFSLSLCATKNTKDLVRSLNLKCIRLCLEFFDDLILSICFEGCIIDFYLYMLNSSQKITPGLCAPKNVQVSTNDVKNFKWERPNLKFRNWIDHFLYILNISTLDVAMGKGVRVKKLSYHILDMTSNETNRTNSVNDTFLSKAEFIVLSNCTYETSQSIHKFLICNNATLFSNVFSPYNLNDLLISNCQNLLVNVDRGNIFLGQDVNKFLKHWIRGSNVTLKCLALEAPMNMERELVIETILEGIDYKVKEEEVSVYKKMLDIFNHGNPSITKIRGFRITRFDGTNCDVVIRTCNPSVMRYSLNMFIF,not soluble
17,LSNTRVQSRTAKVGYQAGVAINLKTSDYFSIRPEVLYNIMGGDTQYGDDEGNTKVLKNRYDYLSIPLNFVATFEAGPGKINVFVAPQFSLGLGGKYTSNTDSSAVGFFGVRRREDRSGTLQTSDVPDNYTGTNKYFNQINWGINYGVGYQVKGLLFTGQYHMGLSNNEPHYSNPDQEAHRGNVVTKNYGFTVGLTYFFGDTK,not soluble
18,MGSDKIHHHHHHMDRFLSIEAFVRVAEASSFAEAARQLGVTSSVVTNRIQQLEKFVNAPLFHRSTRHVRLSEVGETFYRECAEVVGRVNELTDQMRELRATPTGRLRIQMLPGFALDHFGVPLAEFNRRYPGIQLDIIVNDRVVDPVEEGFDIAFQIFPPISESLIERRLFVVRRLFCASPAYLDAHGAPQHPRELLQHTTALYSGYPSRNRWTMTRGDEVVEMELPGMIRSNSVHLLREYALTGGGVVCLPTLVASEALVAGRLVPILTDFEIAPLSFAAVYPATQRQALKVKALVEFLAEYIGDESPWDRPLLERGWVR,not soluble
19,MGSDKIHHHHHHMGNVSTFSIPGPARIPSAATTPAPHPWNRYVALGDSFTEGYGDPEPQSPGGVRGWADRVAEELSLGHQDFAYANLAVRGRLLQQIMDDQLGPALELRPDLVTLSAGGNDLVFRGSDPDKLAERLDPAIGLLSATGATVVLFTGPDWGNTPVFGRIRGKVAIFNENLRTIAARHDGVVADLWTLRQLAAPHMWDPDRLHFSPLGHHTIAAMVLETLNVPHTLKPLEPKVLPVSSWREARSSDLVWAKDYLFPWVVRRVRQRPANLGLKAKRPEPGPIFGPGVAHGPFPAGPLTAGKP,not soluble
20,MKPLAQLLLFLLQFQKGNLVSQSSSTPLMVNGVLGESVTLPLEFPAGERIQFITWLCNGTSFAFLEPYEGKSPKIYVTHPKWQKRLSFTQSYSPQLSNLEMENIGFYSAQIATETSAKLSSYTLRIFKQLPRPQVRVDSIISENGICNAILRCSVEEGGETITYEWTSMGPGAAVSHVGSVLYGSWSLHDLDWIYTCTALNPVSYSNSTLTLAAQLCASSKAAEGTYCPVKWIFLGNRLLLLVFLGVLRTWHIQAQVLSKPLRPNSG,not soluble
21,MSLNPASMKYEDQEFVIFDVETTGLSSVYDTIIEIGAVKMKNGEVIDRFDKFINPHHPLSETTINLTSITDEMVQAADDEAVVIKQFMDFYGNDPLCGHNVQFDVGFVDAALKRCGYPEISQPVVDTLEVSRLLHPEQSRHTLDSLCRKYNVPLEHHHRANQDAEATGYLMFKLLDAFNDKYQEDDLGKMNDYSNGEGYKRARPTHITVLAQNQKPGLRNLYELVSLAGIKYNFKGLRTPKSELRRLHAGLLYGSACSQGEVFIAMMQKGYEEAKKKAEFYDFLEIQPPSNYSSLIADGLIADEAQLEEILTNIYKLGRELNKPVVATSDAHYIDKHEAIYRDVLLAAQRGNPNRNKQHPDLHFYTTQEMLDEFSFMGEDIAKEVVISNPNKINAMIDEGVQPVQDESFPPKIPHTAERVRKLTYDKAHELYGDPLPDNIQARLDRELDAIIGNGYGVVYLISQMLVAKSVKDGYLVGSRGSVGSSLVATMMGITEINPMPPHYRCPKCKQSEFFENGEYASGFDLPDKKCPDCQVMMVKDGQNIPFETFLGFHGDKVPDIDLNFSGDYQPVAHNFIRVMFGPNHSFKAGTVGTLADKKAIGYVKHYQDEHPEIKMNNAEVDRLAIGVTGVKATTGQHPAGIVVLPDDKDIYELTPLQYPSDDISKEWKTTHFDFHQIHDNLLKFDILGHQDPTMIRMLQDLSGIDPLTIPTDDPKVMSLFSSPEALGVTPEQINSKTGTLGLPEFGTPFVRGMLEETKPSTFAELLQISGLSHGTDVWLGNAEELINNGTCKLKNVIGCRDNIMTDLIRWGVKEEVAFSTMETVRKGKGISDENMAVLKENKNIPDWYIPSCLKIKYMFPKAHAAAYILMALRVAWFKVYYPEIYYAAYFSVRADKVDLEAMSRGKNTVVALINRIKEKGTAATKLEKDLQTYMELVNEAIERGINFKMVDINESEATTYKIVDKHTILAPFNAVDGLGDSAAKQIVAARSEAPFLSKEDLQVRGKVSQKIMDFFENNNVLEGMPDQNQLSLFEGHHHHHH,soluble
22,MSSAGEANCAMIGGSLSAARQLDGSVIGMCALPNGKRCSEQSLAAGSCGSY,not soluble
